Measurements reported in the supplement of paper PMC12042874.
± gives the uncertainty stated by the source.

Experiment: amyloid nucleation score (Sup35N fusion, yeast selection) (log enrichment); library NNK3; higher = more nucleation; inactive = no reads after selection
Procedure, shortened: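 After 24 hours of induction with 100 μM copper sulfate, psi-negative yeast expressing peptides of 20 random codons fused to Sup35N were grown for 7 days at 30°C on medium lacking adenine and uracil. Input and output plasmid inserts were sequenced with Illumina, and sequences with under 100 input reads were discarded. Scores for nucleation are the DiMSum log enrichment of output over input reads, centred on the mode score of non-aggregating sequences.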
In the case of TLLHDSDVGMQLSGSQRFFS, the amyloid nucleation score is reported as “inactive”. In the case of TLLLL, the amyloid nucleation score is reported as “inactive”. With TLMGLESVSVYFSMGFLSVY the amyloid nucleation score was “inactive”. For TLNGCR, the amyloid nucleation score was “inactive”. In the case of TLNRLTKKHCFGNFWLYSAW, the amyloid nucleation score is reported as “inactive”. In the case of TLSDQFDMISWVSK, the amyloid nucleation score is reported as “inactive”. For TLVPVCGGSAGLVSSRKAAT, the amyloid nucleation score was “inactive”. For TLWAEYTNLSEKEIDDYIDL, the amyloid nucleation score was “inactive”. In the case of TLWFQPDFTHVRRWYGLGLR, the amyloid nucleation score is reported as “inactive”. With TLYKSGGEFHYKGLALKSKC the amyloid nucleation score was “inactive”. With TMLWYLDDSSSNIREKSHGM the amyloid nucleation score was “inactive”. With TMTRSLYSVVSFKRFNSCLV the amyloid nucleation score was “inactive”. For TMWLLCELFVTC, the amyloid nucleation score was “inactive”. Work on TMYVCWSMFEAIWDINHNTS yielded an amyloid nucleation score of -0.26 ± 0.64. In the case of TNLLM, the amyloid nucleation score is reported as “inactive”. In the case of TNNRKRLYYWFERVTSE, the amyloid nucleation score is reported as “inactive”. In the case of TNRIMNPVYDILWSGMGQPC, the amyloid nucleation score is reported as “inactive”. With TNTFQSRNMFVNTALIYSP the amyloid nucleation score was “inactive”. For TNTSFSNWRCTPDRGIM, the amyloid nucleation score was “inactive”. For TNVRIYCSWGVDAG, the amyloid nucleation score was “inactive”. In the case of TPHLSCNLRYG, the amyloid nucleation score is reported as “inactive”. TPLTPSGRLGFLTK showed an amyloid nucleation score of 0.7 ± 0.21. For TPNARSNPSNRPVSSTRARS, the amyloid nucleation score was “inactive”. With TPRKVVDNGGLIDFKVYRLL the amyloid nucleation score was “inactive”. For TPSVRRGVMGVSPELCAMVG, the amyloid nucleation score was “inactive”. For TPYQYFFRNCWKMSYRRAKI, the amyloid nucleation score was “inactive”. For TQGFLNKAGNVLSVIMDRIR, the amyloid nucleation score was “inactive”. With TQLFGGFPTEGQMMYPPRSS the amyloid nucleation score was “inactive”. With TQRRFMYMAFNQYMSQSSSR the amyloid nucleation score was “inactive”. With TQSFWIARYTQLVCPRLCQN the amyloid nucleation score was “inactive”. For TRALT, the amyloid nucleation score was “inactive”. With TRERWTTVYLNKLFLLCYSD the amyloid nucleation score was “inactive”. For TRICMCFEFVNTSY, the amyloid nucleation score was “inactive”. In the case of TRILVRTGYHLLFLEG, the amyloid nucleation score is reported as “inactive”. For TRKLIDYLFTVKQVLQSKEE, the amyloid nucleation score was “inactive”. With TRMEICCKGYKGNVPKFAVY the amyloid nucleation score was “inactive”. In the case of TRMSVQLISFAKLTFFSACM, the amyloid nucleation score is reported as “inactive”. With TRNSYCTFRGGIIFCL the amyloid nucleation score was 1.25 ± 0.09. In the case of TRRGHHCQFLVSGSGIAL, the amyloid nucleation score is reported as “inactive”. For TRSCDRYRALYSLLFTTGSM, the amyloid nucleation score was “inactive”. For TRWHDGKRVSWKSTPNMLSV, the amyloid nucleation score was “inactive”. With TRYGNW the amyloid nucleation score was “inactive”. For TSAYGMSSWGFWS, the amyloid nucleation score was “inactive”. With TSESAIAVRWSVFSPWPLGF the amyloid nucleation score was 0.643 ± 0.15. For TSGHLVLGGYLSNQVKSVFR, the amyloid nucleation score was 0.605 ± 0.24. In the case of TSKLVCPNGVMHLRDDRVGC, the amyloid nucleation score is reported as “inactive”. For TSKREWLMRNYAHCTNFDGR, the amyloid nucleation score was “inactive”. In the case of TSKRSYVSTGYTNWFTFRI, the amyloid nucleation score is reported as “inactive”. In the case of TSKVGLACKTIYVERSFWYF, the amyloid nucleation score is reported as “inactive”. With TSMSGYRTRNPMTVPHHCVV the amyloid nucleation score was “inactive”. With TSQQHPASVSKGYMLRDG the amyloid nucleation score was “inactive”. With TSQTLESQDLIFSGCHSGWL the amyloid nucleation score was “inactive”. For TSQYRPERKLRVR, the amyloid nucleation score was “inactive”. With TSSETNLAYCSAVRGGLRKQ the amyloid nucleation score was “inactive”. With TSVLSTGCYTRTVTNVNGSI the amyloid nucleation score was “inactive”. For TSVSKFKPVLHYNRTGSHGF, the amyloid nucleation score was “inactive”. For TTDCIESVRDG, the amyloid nucleation score was -0.659 ± 1.4. For TTFATSCNMWYHRSILHS, the amyloid nucleation score was “inactive”. For TTLQEDGYRDACGYMASVFW, the amyloid nucleation score was “inactive”. In the case of TTMWFLWEVSGYCHKCN, the amyloid nucleation score is reported as “inactive”. In the case of TTQILAL, the amyloid nucleation score is reported as “inactive”. With TTRKNLKSGLVVSL the amyloid nucleation score was “inactive”. For TTRYHF, the amyloid nucleation score was “inactive”. With TTSLSIGGLIFRLVL the amyloid nucleation score was “inactive”. With TTTLDSQSNNMFGAS the amyloid nucleation score was “inactive”. In the case of TTTRIAMYWYEYMSGCASHY, the amyloid nucleation score is reported as “inactive”. For TVDFLSLVCVVIFRGTDWRR, the amyloid nucleation score was -1.03 ± 1.1. With TVDMSKPGYIWFSSDRSRYW the amyloid nucleation score was “inactive”. For TVGCHSGPELMFQSWNSRSL, the amyloid nucleation score was “inactive”. In the case of TVIVCVTFLRGWVSSACGLS, the amyloid nucleation score is reported as 0.045 ± 0.8. With TVIWLYIFRSQMPPVNPMRL the amyloid nucleation score was “inactive”. For TVKMRKFRRGTFRDMDIYWR, the amyloid nucleation score was “inactive”. Work on TVKVYTWNY yielded an amyloid nucleation score of 1.93 ± 0.09. TVLITIIFTSRGVAVRKS showed an amyloid nucleation score of -1.19 ± 1.9. In the case of TVLSIIVFSYLLVCYHLVSV, the amyloid nucleation score is reported as “inactive”. With TVLSVGINDFPYRSAISCLR the amyloid nucleation score was “inactive”. In the case of TVLVTMFKIEEQLTF, the amyloid nucleation score is reported as “inactive”. For TVNWLL, the amyloid nucleation score was “inactive”. For TVPVVREVLRLRVLRIFGVG, the amyloid nucleation score was “inactive”. In the case of TVRKSRSRSTQDEAFNPGTH, the amyloid nucleation score is reported as 0.111 ± 0.63. In the case of TVSICSGVSRVWKHLHYMMV, the amyloid nucleation score is reported as “inactive”. For TVSLRCWARLSNTDFIRFNS, the amyloid nucleation score was “inactive”. With TVTCANSCLCRLSRMSCVVL the amyloid nucleation score was “inactive”. In the case of TVVKPNRLAYHSQLFCKAHT, the amyloid nucleation score is reported as “inactive”. With TVYELYVDLAVRRSAFAFLP the amyloid nucleation score was 0.744 ± 0.15. For TWESGENLTLTWAAQMGRCG, the amyloid nucleation score was “inactive”. For TWFLTPLNTFIFLLVPLFGL, the amyloid nucleation score was “inactive”. With TWILSMWRSCIPNL the amyloid nucleation score was “inactive”. For TWLIY, the amyloid nucleation score was “inactive”. With TWVCEG the amyloid nucleation score was “inactive”. For TWVILCKNSWFMLI, the amyloid nucleation score was “inactive”. In the case of TWVVLG, the amyloid nucleation score is reported as “inactive”. With TYENDLC the amyloid nucleation score was “inactive”. With TYGNLFNNCDKIYRRQNRSL the amyloid nucleation score was “inactive”. In the case of TYISF, the amyloid nucleation score is reported as “inactive”. With TYKHNSTYIKPLTSFLQSGG the amyloid nucleation score was “inactive”. For TYKRIPYELTRSGTKPLYTP, the amyloid nucleation score was “inactive”. For TYLLYCCVVVR, the amyloid nucleation score was “inactive”. TYLRLTWIDCYSPCFKSNAI gave an amyloid nucleation score of 2.43 ± 0.061. In the case of TYMTYERVYL, the amyloid nucleation score is reported as “inactive”. In the case of TYQST, the amyloid nucleation score is reported as “inactive”. In the case of TYSIISENIVVFFNRM, the amyloid nucleation score is reported as 2.58 ± 0.059. With TYSSGFAPGWN the amyloid nucleation score was “inactive”. In the case of TYSVGHR, the amyloid nucleation score is reported as “inactive”. In the case of TYTVYLRRYAYYECTFRQFL, the amyloid nucleation score is reported as “inactive”. In the case of TYVKYKRILQQGIYAVVMNV, the amyloid nucleation score is reported as “inactive”. Substance VAFGWDLFFNVLNLHCNVSN has an amyloid nucleation score of 1.89 ± 0.069. Substance VALDNCTFVLVAMQTDQD has an amyloid nucleation score of 0.817 ± 0.12. For VAMRDERGLFNRLWLRVFV, the amyloid nucleation score was “inactive”. For VAQSFEIGYYSGLYIYYCSV, the amyloid nucleation score was “inactive”. VAVDIRALFRGRWVMNLARR gave an amyloid nucleation score of -0.75 ± 1.5. With VCCCHLCL the amyloid nucleation score was 0.17 ± 0.56. For VCLCNQVRLTM, the amyloid nucleation score was “inactive”. For VCLHFMGLRVAFLAGMFIII, the amyloid nucleation score was “inactive”. With VCNMRVYI the amyloid nucleation score was “inactive”. Substance VCNMYFSFIRNLRGFNRNQC has an amyloid nucleation score of 2.06 ± 0.062. VCQGFSKFLRWSQVRFLSMA gave an amyloid nucleation score of -0.288 ± 1.4.
